According to publication PMC11605450, “Azotobacter vinelandii scaffold protein NifU transfers iron to NifQ as part of the iron-molybdenum cofactor biosynthesis pathway for nitrogenase” (The Journal of Biological Chemistry, 2024):
One block for each molecule: values may come before it.

Key:
[1] = biological target: apo-NifQH (A. vinelandii NifQ, C-terminal 6xHis, without [Fe-S] cluster) (A. vinelandii) (UniProt P11068); assay: pull-down; apo-NifQH, AS-NifUS and SNifS (10 nmol of each) incubated together 5 min, anaerobic, buffer W (100 mM Tris-HCl pH 8.0, 150 mM NaCl, 10% glycerol); Ni-NTA agarose column, washes with 5 and 20 mM imidazole, elution with 150 mM imidazole; immunoblots
[2] = biological target: R-NifUS (A. vinelandii NifU, C-terminal Strep-tag, with in vitro reconstituted [Fe-S] clusters) (A. vinelandii) (UniProt P05340)
[3] = biological target: T1, apo-NifQH (A. vinelandii NifQ, C-terminal 6xHis, without [Fe-S] cluster) (A. vinelandii, UniProt P11068 1-195); assay: pull-down; 10 nmol of Strep-tagged bait (AS-NifUS or R-IscUS) immobilised on a Streptactin-XT column in anaerobic buffer A (50 mM Tris-HCl pH 8.0, 100 mM NaCl, 10% glycerol), 10 nmol NifQH loaded onto the charged column, washed, eluted with 50 mM biotin; conditions: both partners purified
T1 construct: Purified aerobically to destroy the [Fe-S] clusters; source: E. coli BL21 (DE3), purified (Ni-NTA, aerobic conditions); not shown: His6, C-terminal, kept
T1 sequence (looked up): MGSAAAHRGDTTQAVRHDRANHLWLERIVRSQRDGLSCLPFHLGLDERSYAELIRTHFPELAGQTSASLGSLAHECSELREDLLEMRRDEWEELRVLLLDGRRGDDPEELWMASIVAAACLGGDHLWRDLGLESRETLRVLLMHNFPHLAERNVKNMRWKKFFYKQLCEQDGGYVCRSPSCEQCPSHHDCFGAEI

Sequence of R-NifUS (A. vinelandii NifU, C-terminal Strep-tag, with in vitro reconstituted [Fe-S] clusters) (A. vinelandii) (P05340 whole entry): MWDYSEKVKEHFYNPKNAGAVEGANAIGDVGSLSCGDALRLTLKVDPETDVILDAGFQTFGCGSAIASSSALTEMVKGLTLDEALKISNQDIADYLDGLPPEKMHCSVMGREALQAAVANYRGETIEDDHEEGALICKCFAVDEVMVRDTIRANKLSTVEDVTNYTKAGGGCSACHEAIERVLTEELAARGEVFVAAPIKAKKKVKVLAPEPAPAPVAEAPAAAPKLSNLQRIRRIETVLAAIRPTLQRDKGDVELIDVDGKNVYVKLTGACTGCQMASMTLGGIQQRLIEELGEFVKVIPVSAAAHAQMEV

percent of the total protein co-eluted [1]: 10%
Molecule: AS-NifUS (as-isolated A. vinelandii NifU, C-terminal Strep-tag) (from UniProt P05340 1-312) (natural protein)

iron content per monomer of NifQH in the flowthrough of a Strep-tactin column after 5 min incubation of apo-NifQH with R-NifUS (Fe per NifQH monomer (molar ratio)) [2]: 1
Molecule: apo-NifQH (A. vinelandii NifQ, C-terminal 6xHis, without [Fe-S] cluster) (from UniProt P11068 1-195) (natural protein)

binding result [3]: binds
B1: R-IscUS (A. vinelandii IscU, Strep-tag, with in vitro reconstituted [Fe-S] clusters) (natural protein, UniProt O31270 1-128, looked up)
chain: MAYSDKVIDHYENPRNVGKLDAQDPDVGTGMVGAPACGDVMRLQIKVNEQGIIEDAKFKTYGCGSAIASSSLATEWMKGRTLEEAETIKNTQIAEELALPPVKIHCSVLAEDAIKAAVRDYKHKKGLV
notes: also called R-SIscU; source: E. coli BL21 (DE3), purified (Strep-Tactin XT, anaerobic), [Fe-S] clusters reconstituted in vitro; not shown: Strep-tag, C-terminal, kept
